Source: the domain aggregation screens of Martell et al. (2025)

Assay: soluble fraction after stress (log2 fold change); higher = more stays soluble; pooled small domains, quantitative proteomics
Conditions: stress: 50 degC
How it was run: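 Pooled custom libraries of small protein domains were measured in a high-throughput format, with quantitative proteomics as the read-out. Each library was stressed at 50°C. Aggregation propensity is given as the base-two logarithm of the fold change in how much of each protein stays soluble after the stress. Higher values mean a larger share of the protein remains in solution.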

Sequence	soluble fraction (log2)
HMEILNYVVSDGQSGIRIDRYLSDSNEDLSRSYIQKLLKEQKVTVQGTFVKANYKVQAGDVITVEVPDMA	-0.946
HMGTTAWISTKTANGSVNIRTGPGTGYGVIGWALNGDKLEVLSRGTSWHYVKLVKNGKIGYVSASYVSFTQ	-0.193
HMLELTGEEEFVIRTLTRQGDLHINALVVETDIPINRMISLLFELEMKGVVKALVGGVYHLLG	-2.04
HMANTAKVNVDTANLRETADENSKILKQLSLNDNLEVVEETGDWYKVKNSNVTGYVRKDLVTVEN	0.371
HMDNIPAHIKAKIINYVNRNYPGAIIKDIERKSNGRYEAEIVYNNREYDLLFDAQGNFISASLDDK	0.123
HMQTKNYVYFNNTENWSTVNVYVWSSKDSTYMSWPGKAMESIGNNTYRFELPNGAEYAIFNNGSAQTVD	-0.137
HMTGYVMIRVDGLSLEKFLNMAAEAGVRVSDVRRASYTVLYAVVSPRDLKKLQSVAPEKYTVTVR	-0.664
HMESADEESNALMYDGLLAMRGKRYEVALEFFDALVKHDPDFAEGWNKRATVLYLLGRYERSIADIKQVLA	-0.0654
HMSSYMQMQLERLESLLQKNDLTDSDKYDIRQLVEDLDKVPESVSPNLVGAYMTIKNRYASVLKTVL	0.501
HMAQLKYEQIKSYLQAEAVKPESATRMPTVRELMRRFNVSLVTVNRALSELEHAKVIVRRQGAGIVAAQ	-0.703
HMHNSQTIIDNIKRIANEQNISLSKLAVISGLGKNTITSMTAKTNIKIETLTAIAKSLNVSIHDLTGE	-0.0839
HMQRFIHITVSDVHQATRLLEEEMQLTNYSVAENNAIKIFEFTYEPQEINHLFGKNGIEVSSLFIGS	-0.134
HMPARTANEEAIRKYLLNHDSITRKETQALLKTGQSAAGRILKEMVENGWLARIGNGRSTGYELR	-0.034
HMNNWYESSIKSLVEEYFREHGFSVVFDSSEFWDVFIEKYHKQIPSSQIALFDQVAAEARSYAFNKK	0.116
HMEDNKLKNEIKNELVSHLEKPYSVEDLADALKYHGSAAFKLIVQELAILERERAVVVTHDGNFKINSS	-0.619
HMSSAVKRALAELPENWRMIVYYRVVEGLSYAEIAKVLDIPDGSVMSGLHRGKKMLRGLLLEYAQQEGYD	-1.72
HMSNMESLIGREATVIEMIPAEDVGRVKIDGDEWQAVLAREDDNEPRRDIQVGEKVIIVSYDSIILTVKTK	0.0115
HMDMAYEVVKAFHDLQDYKDVKGGKVYHHYDVGDTYPRQGLDPAPDETRIEELLSSGNAQGVPLIAEV	0.0503
HMYQPLYEQIKRMLTQSLIDGEWKAGEMIPSEMELAARFKVSQGTVRKAIDELVSENILMRRQGKGTFVH	-0.231
HMSDDVELLGRLSDREVSVLQYLSQGYSNKQISEQMFISNKTVSTYKARLLLKLNAGSLVDLIEFAKRNTL	-1.4
HMKVEFDAMDKRILELMAKEYDTVLMARHLPLTPIVIDVRKKRIREVLNLPDATDAEIVIEAKEKDII	-0.322
HMHIDQVIRERRLALGLTQEELANKIGVSAPAVSKWEKRVSYPDITLLPALARILGTDVNTLLTFS	-0.365
HMIEDMQQYIKEIRQMVSGRLDMTRNLEDEEIRDTIAELVAEESRKQYMTLTEKREVIEGVFNSMR	-0.0273
HMKKVIEFKDVSFAFEKKPILQDFNLLVQNKDRIGIVGDNGVGKSTLLNLIAERLQPQSGQVII	0.00568
HMFPNQLLISRLSNQLSASERFAAVSSIAQLKNIDYDVLHVLVHTMNSDPNSNVRLAALEALSR	-0.529

Sequence	soluble fraction (log2)
HMPLEKGVVILDVTPSSAKVAVDGTSVETTYPLRLSAGLHQLSAEADGYDSITEYFKVETEKTTVTLDLSK	0.105
HMSNEVSYSDFVRSVESDEVNAVTLDGEQIRFVGNDGQTYSVIKPADAQITQLLIDNNVTVRAEQQ	0.0224
HMASDEVPGAGFKWREDVLLRVMEANGIDKSNRDDFVRHAVNFDDDDNNYLKKAEIEAAAAAWVESQSPA	-0.291
HMPTAGYMTVTPDRVKEGQQFLATLRPPYVLKADGLAAGKGVLILPELEEAQRELEEMLGGFLGELSVNR	-0.0813
HMRPNREKDMADLEKLAPFLLQMLTNYAQMTGDEKPLNAFITRFGYAAQIRDIQDFFMGPWHPA	≥ 0.62
HMPDLSYVDEVLNRYKGHKGTLITVLQQVQAHKGYLEKEALERVARSMGVPTARIYGVVTFYAQFR	0.0318
HMPRPLVAPMPGLIVRVTAVVGDSVDAGQGLVVMEAMKMENELRTTTAGVVKTVHVQPGVAVEKGALLIEF	-0.893
HMTKGDRIKARREELGLTQTDLAEAISSTKQNIYKYENNIISNIPSDKVEAIAEVLKISPAYLMGWGDE	0.0302
HMATYETEVISGVNLRSAPNTSASVYRLLSKGEDIHVIQKVNDYWLKVQTKDGKIGYISASSKYTNYIA	-0.29
HMQDPRITRTRGLILQAFDALLVEKGFHALSVQAIAGRAGINRATFYAHFADKYALLDTSIQE	0.268
HMTRDAQLAALERLMDDPSPVVRKAVLKGVQAAGTEGLLWLQQLSKNQTLGPYALALLTELR	-0.412
HMPKHHIESVIPENFAGERLDKVLAVLWGTFSRAQLTRWIRDGSLLLDGHKVKPNTKVDGSEKIVLQAEVA	-0.891
HMEDVTLSLVVGEDLDGERLDVFLTWKLDRTRSQVQALIRDGKVRLEQGQRARPSMVVRSGMGISVSLEPR	-1.49
HMDFLKSVDLSKYSKVESLILSHLSKGDFDIDDFIRSFSLGTDEVTRAIVSLEIEGIILRKGNRIFRKKS	-0.0402
HMHDLGEQIIEKLRASGGISTLTDKSDPDAIYRQFKVSKKKYKQALGTLYKSRRITLAPNQIKLA	-0.129
HMTIKNHIDEILKKEPFILENIKNGLINISALARQIEPQLSRKVGKKLNVNAIIMTIKRMEIDQLNK	-0.989
HMRLSVRQRMSDVLGALKTQAFVEFTQLFRPQEGRMGVTVTFSAILELLREGLIEIVQSEPFAPIHVRAGA	-0.0036
HMENIIKISASYEGLRVDQFLSNYLKISRSKVQKYISEEKIFLNNVPTKTNRKVKLDDIISYNLNF	-3.01
HMASPKEALWRSLAEEPDTWWDNRERKSQPGANPRSPDFKHKESGEALWIESRDTPTWVLETL	0.1
HMIDIDNLEKAAILLLSMGTEAAAKVMQKLSRDEVQRLISKMASLSGVSSIEAKWTLQQFFNQYREQSG	-0.638
HMRAVPTKLAPFVEVLKAMLEADGHRPKAQRRTAKALHLELISRGYAGGYTRLTDYIRDWRQQQG	-2.34
HMGTGELLVHVIGAVHSPGVVRLPTGARVVDAIDAAGGAREDAQTEQLNLARLVDDGEQVRVPVVGESVD	-0.0181
HMEISLEAKMAEVREQVRGLAGINFRTLLEMQASRSNIIVTFLAILELMKIGAIQIRQEEIFGEIIIDSRD	-0.222
HMSSLEQVYPNPVSSILKLNSFIKNYKILNATGHEVLKGSGNTINVGKLPSGSYFLITSENYSIKFIK	-1.24
HMINKIANLSAELRMEGLPVSIRSTQAAVKIYMDLGGDDRNLLKTALMSIYVKDRYDIPKFNKVFEKLFA	-1.12

Sequence	soluble fraction (log2)
HMSVFMIIVLKQHAPQEFVDMLMSSIKAKGVQIDVSKGARKTILGLVGNTSVIDREQIAGYEYVDKVIRV	-0.85
HMAEAPGSVELLAERLRPWWEIHGGEWGSKTKALRFLFGDQAPVAGSYWRALEAAIAQIESTT	-0.16
HMKYSNDEVERDLYVRGVIYQIGDLVENKLDGTSGEVVRRGPNYVQYTDGENFYKAFLSALQEQK	-0.354
HMKRSFGSVRQLRSGNYQARYTGPDTVRHTSPVTYTSKMDAEAWLVDERRKISSGTWTPPAR	0.0133
HMISFLNFVRKEIDASQLKDSTKQNHLTTIGLLQSFKPSIEFKDLNYNFITSFEKYLYDAGYQM	0.133
HMLVIMKTGASEEEIGRVIERIEGEGLSAHVSRGTERTVIGVIGQGVDVHRIAGVLGGMSGVESLVPIS	0.0405
HMSPPALAVQRDGSNVQISWPGAEEGWRLESSAEPSGAAWDLIAQNPTPVGGRWTVSLTEPTGRRFYRLVK	0.0321
HMKQLIGYSVIDIKMGKLGEISFVNSKTAQALIHVSKDGKGFYFPWHKQFVKNIDAEKGIMEVEIPKEFLD	-0.237
HMQGATVYIKSDDIGKTTNEQGSFNFDKLKKNRYTLEISFIGYETKNLQAYTDRENIVQLNRKS	0.248
HMGKELSTVVVPDLTGLSVLEARNVLTKVGLQLTPSGAGIAFKQIPTPGTRLTLGATVTVYFVATGY	0.0979
HMKTDLQIQQDVMAELKWEPKVNAAHIGVEVKHGVVTLSGHVDSFAEKWNAEQAAKRVAGVKFIAIELDV	-1.67
HMGTSSAEIAAELRAQIFAGELRPGEMLPSAREITGTWNVAIATASRVHALLRSEGLATPVPGVGTVVAT	0.0105
HMGRKEIIVPNLLGKYAIEAGTILKNAGLLEGQAREENSDTYPAGQIMDQFPKANTPANENDKVDYVVSI	≥ 0.62
HMGQDLEAFLLKAVGQLDQGDGVTLDALLKVAVSNGGFVREVAEAKLDDMLDAGTLDEPRFGWFRVGAT	-0.742
HMILKNVTSDLANKRLDKVASILFQTYSRTQIKKWILEGRVLVNGEISNPKDHVHENDEIEINPI	-1.04
HMAAHHIILEEREQLSVSGVEEVESFDENTIVMLTNRGTLIVRGEELHIEKLSLDGGDLRVEGSIDSLTYE	-0.274
HMKGQLVVFPNPASSNDMVRFNKNISFSIFDITGHLVDTKRNVNELSVGNLEAGTYILRTEQGDVLRMVI	-1.24
HMTEKPTREAHILDQLARDGGVLVAALSRELGVSEVTIRSDLRDLEAAGLLQRTHGGAQASSFQTVL	-0.0142
HMDNRLFKMLYYLLDKERATAPELAAEFEVSTRTIYRDVEALSSAGIPIYAEPGRNGGIYLLQD	-2.21
HMDRPARDEAQSWLADVLADGPVPTAEIREEAEAAGLAWRTIQRARIALSVEPIRGDGRNAWLWQLPG	-1.42
HMSVTDDQLRVFTNKSGTKIKAKIVEVSDDKVKLIRDDNKKFIVPINSLSEEDQDYLRDWVSNEAVEP	0.0333
HMGARWPIQDRPLTATEAAAVRRMYAGGLPHGRSKNSVITEVWGDLSNKPKRLDWLNQALEGGA	0.184
HMADMKIHLRPYAHDTNRWHVDIRLMHPTAATEIRKRLVAPAGLSEAQARAWGERQVPTILGKALGVI	-0.415
HMGKELTVPDVVGQNYVSAQEKLIAGGFQVEVADSVYDSRYGRGVVVDQNPHKDTRVKPGRLIYVTVNA	-0.0999
HMKWYDSDKGFGFLSQEEGEDVYVRSSALPAGVEGLKAGQRVEFGIASGRRGPQALSL	-0.0714
